Data published in patent publication US20240115721A1 (Memorial Sloan Kettering, published 2024).

What was measured:
[1] = target: T1, endogenous human DLL3 on NCI-H82 cells (human, UniProt Q9NYJ7 27-618); assay: flow cytometry, NCI-H82 cells (endogenous DLL3), mAb 10 µg/ml
T1 construct: whole, on cells
T1 sequence (looked up): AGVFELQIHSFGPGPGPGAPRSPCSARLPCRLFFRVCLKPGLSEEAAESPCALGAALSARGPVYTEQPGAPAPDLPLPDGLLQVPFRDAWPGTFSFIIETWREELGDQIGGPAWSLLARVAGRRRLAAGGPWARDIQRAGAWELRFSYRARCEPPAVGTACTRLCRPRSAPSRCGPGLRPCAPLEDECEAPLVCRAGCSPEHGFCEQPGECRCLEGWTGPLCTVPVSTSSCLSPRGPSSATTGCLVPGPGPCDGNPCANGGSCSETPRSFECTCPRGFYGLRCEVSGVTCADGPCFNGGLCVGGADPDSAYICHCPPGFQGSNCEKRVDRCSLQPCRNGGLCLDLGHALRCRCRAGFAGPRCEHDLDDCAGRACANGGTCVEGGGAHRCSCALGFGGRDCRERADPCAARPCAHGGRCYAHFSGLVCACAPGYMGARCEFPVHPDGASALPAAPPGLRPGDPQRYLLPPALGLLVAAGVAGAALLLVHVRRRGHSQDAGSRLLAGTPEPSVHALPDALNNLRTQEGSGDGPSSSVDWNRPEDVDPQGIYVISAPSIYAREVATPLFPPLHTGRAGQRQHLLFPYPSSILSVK
Procedure: (§1) The four monoclonal antibodies (6-G23-F, 2-C8-A, 7-I1-B and 10-O18-A) were tested for their ability to bind to mouse and cynomolgous DLL3 as well as endogenous human DLL3 by flow cytometry. For this purpose, HEK293 cells were transfected with plasmid DNA encoding full-length human, mouse or cynomolgous DLL3 and used in the experiment. Briefly 106 transfected HEK293 cells or NCI-H82 primary cells were added in FACS buffer PBS 0.5% BSA to the wells of a 96 well U bottom plate and purified monoclonal added to 10 μg/ml. After 30 minutes incubation at 4° C. the cells were washed 3 times in FACS buffer and incubated with a PE labelled F(ab)2 anti-mouse IgG H and L 2nd stage. After another 30 minutes incubation at 4° C. the cells were washed three times in FACS buffer and analyzed on the flow cytometer. Data are presented at the ratio of the Mean Fluorescent Intensity for the monoclonal divided by the background staining with the 2nd stage. As shown in the Table below, all of the monoclonal antibodies cross reacted with cynomolgous DLL3 and detected endogenous DLL3 on NCI H82 cells but only 6-G23-F and 7-I1-B bound to mouse DLL3.

[2] = target: T2, full-length cynomolgous DLL3 on transfected HEK293 cells (cynomolgous); assay: flow cytometry, HEK293 cells transfected with full-length cynomolgous DLL3, mAb 10 µg/ml
T2 construct: whole, on cells; also called 293 cyno DLL3
Procedure: as §1

[3] = target: T3, full-length mouse DLL3 on transfected HEK293 cells (mouse, UniProt O88516 33-584); assay: flow cytometry, HEK293 cells transfected with full-length mouse DLL3, mAb 10 µg/ml
T3 construct: also called 293 mDLL3
T3 sequence: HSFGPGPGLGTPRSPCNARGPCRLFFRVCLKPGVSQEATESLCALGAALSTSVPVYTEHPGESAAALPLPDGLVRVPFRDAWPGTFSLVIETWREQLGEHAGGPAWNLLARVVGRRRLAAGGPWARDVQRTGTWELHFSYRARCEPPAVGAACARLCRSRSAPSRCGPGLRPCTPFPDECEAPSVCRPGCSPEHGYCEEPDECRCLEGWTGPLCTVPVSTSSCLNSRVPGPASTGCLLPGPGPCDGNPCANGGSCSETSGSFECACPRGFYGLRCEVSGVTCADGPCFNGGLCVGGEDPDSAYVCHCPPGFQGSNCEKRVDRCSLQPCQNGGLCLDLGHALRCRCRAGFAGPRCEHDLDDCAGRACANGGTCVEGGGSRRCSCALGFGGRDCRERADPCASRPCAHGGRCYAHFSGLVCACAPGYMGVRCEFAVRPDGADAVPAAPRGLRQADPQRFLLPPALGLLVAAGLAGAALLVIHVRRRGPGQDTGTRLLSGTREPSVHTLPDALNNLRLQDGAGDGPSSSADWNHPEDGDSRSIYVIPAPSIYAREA
Procedure: as §1

[4] = target: T1, endogenous human DLL3 on NCI-H82 cells; assay: cell-based or functional assay
[5] = target: T4, full-length human DLL3 on transfected HEK293 cells (human, UniProt Q9NYJ7 27-618); assay: flow cytometry, HEK293 cells transfected with full-length human DLL3, mAb 10 µg/ml
T4 construct: also called 293 hDLL3
T4 sequence: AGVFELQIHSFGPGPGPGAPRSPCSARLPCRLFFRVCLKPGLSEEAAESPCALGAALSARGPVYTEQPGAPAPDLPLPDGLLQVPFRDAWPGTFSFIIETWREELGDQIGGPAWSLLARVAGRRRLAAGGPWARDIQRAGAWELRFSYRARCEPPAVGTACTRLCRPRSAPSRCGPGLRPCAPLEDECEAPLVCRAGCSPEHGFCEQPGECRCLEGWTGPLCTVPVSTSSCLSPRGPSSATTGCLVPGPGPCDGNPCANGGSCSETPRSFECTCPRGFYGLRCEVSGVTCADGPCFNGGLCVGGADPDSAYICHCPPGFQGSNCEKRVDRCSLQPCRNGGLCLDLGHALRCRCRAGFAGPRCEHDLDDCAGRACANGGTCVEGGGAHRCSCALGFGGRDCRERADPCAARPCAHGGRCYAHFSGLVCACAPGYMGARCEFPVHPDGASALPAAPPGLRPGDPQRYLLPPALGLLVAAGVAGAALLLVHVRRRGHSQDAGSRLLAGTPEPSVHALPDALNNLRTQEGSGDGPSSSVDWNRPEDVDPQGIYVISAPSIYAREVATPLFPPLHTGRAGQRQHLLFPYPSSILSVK
Procedure: as §1

[6] = target: T1, endogenous human DLL3 on NCI-H82 cells; assay: cell-based or functional assay; remark: listed apart in the source
[7] = target: T1, endogenous human DLL3 on NCI-H82 cells; assay: cell-based or functional assay; remark: listed apart in the source

B1: 10-O18-A (antibody, V domains shown)
VH: QVQLQESGPGLVKPSETLSLTCTVSGGSINSYYWSWIRQPPGKGLEWIGYIFYSGITNYNPSLKSRVTISLDTSKNQFSLKLSSVTAADTAVYYCARIGVAGFYFDYWGQGTLVTVSS
VL: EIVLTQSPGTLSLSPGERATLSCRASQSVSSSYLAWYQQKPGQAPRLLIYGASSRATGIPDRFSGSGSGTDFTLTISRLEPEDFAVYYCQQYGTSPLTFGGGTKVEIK
notes: Hybridoma monoclonal from Ablexis AlivaMAb Kappa mice; captured and detected with anti-mouse Fc / anti-mouse IgG reagents; It is not the recombinant human IgG1 form H10-O18-A; also called 10-O18-A (10 µg/ml)
[1]
  ratio of Mean Fluorescent Intensity (monoclonal / background staining with 2nd stage): 9.4
[2]
  ratio of Mean Fluorescent Intensity (monoclonal / background staining with 2nd stage): 9.85
[3]
  ratio of Mean Fluorescent Intensity (monoclonal / background staining with 2nd stage): 0.99
[4]
  MFI Ratio (4° C. plate / 37° C. plate), 4/37 internalization assay on NCI-H82 cells: 1.56
[5]
  ratio of Mean Fluorescent Intensity (monoclonal / background staining with 2nd stage): 4.74

B2: 7-I1-B (antibody, V domains shown)
VH: EVQLVESGGGLVKPGGSLRLSCAASGFTFSNTWMSWVRQAPGKGLEWVGRIKSKSDGGTTDYAAPVKGRFTISRDDSKNTLYLQMNSLKTEDTAVYYCTQYYWNSFDYWGQGTLVTVSS
VL: not shown
notes: Hybridoma monoclonal from Ablexis AlivaMAb Kappa mice; captured and detected with anti-mouse Fc / anti-mouse IgG reagents; also called 7-I1-B (10 µg/ml)
[6]
  FAB ZAP % SC16 Max Killing, NCI-H82 cells: 97%
[1]
  ratio of Mean Fluorescent Intensity (monoclonal / background staining with 2nd stage): 19.2
[7]
  Dy light Dy658 Fluorescence (% of the Control Reference Monoclonal Antibody), quenching internalization assay on NCI-H82 cells: 70.1%
[2]
  ratio of Mean Fluorescent Intensity (monoclonal / background staining with 2nd stage): 18.7
[3]
  ratio of Mean Fluorescent Intensity (monoclonal / background staining with 2nd stage): 4.7
[4]
  MFI Ratio (4° C. plate / 37° C. plate), 4/37 internalization assay on NCI-H82 cells: 1.68
[5]
  ratio of Mean Fluorescent Intensity (monoclonal / background staining with 2nd stage): 9.74

B3: 2-C8-A (antibody, V domains shown)
VH: EVQLVESGGGLVQPGGSQRLSCAASGFTFSSYWMNWVRQAPGKGLEWVANIKEDGSEKYYVDSVKGRFTISRDNAKNSLYLQMNSLRAEDTAVYYCARDPGWAPFDYWGQGTLVTVSS
VL: DIQMSQSPSSLSASVGDRVTITCRASQGISNYLAWFQQKPGKAPKSLIYAASSLQSGVPSKFSGSGSGTDFTLAISSLQPEDFATYYCQQYNSFPYTFGQGTTLEIK
notes: Hybridoma monoclonal from Ablexis AlivaMAb Kappa mice; captured and detected with anti-mouse Fc / anti-mouse IgG reagents; It is not the recombinant human IgG1 form H2-C8-A; also called 2-C8-A (10 µg/ml)
[6]
  FAB ZAP % SC16 Max Killing, NCI-H82 cells: 89%
[1]
  ratio of Mean Fluorescent Intensity (monoclonal / background staining with 2nd stage): 11.9
[7]
  Dy light Dy658 Fluorescence (% of the Control Reference Monoclonal Antibody), quenching internalization assay on NCI-H82 cells: 62.9%
[2]
  ratio of Mean Fluorescent Intensity (monoclonal / background staining with 2nd stage): 15
[3]
  ratio of Mean Fluorescent Intensity (monoclonal / background staining with 2nd stage): 1.5
[4]
  MFI Ratio (4° C. plate / 37° C. plate), 4/37 internalization assay on NCI-H82 cells: 1.76
[5]
  ratio of Mean Fluorescent Intensity (monoclonal / background staining with 2nd stage): 7.71

B4: 6-G23-F (antibody, V domains shown)
VH: QVQLVQSGAEVKKPGASVKVSCKASGYTFTSYYIHWVRQAPGQGLEWMGIIDPSDGSTNYAQKFQGRVTMTRDTSTSTVYMELSSLRSEDTAVYYCARDREYNYYGLDVWGQGTTVTVSS
VL: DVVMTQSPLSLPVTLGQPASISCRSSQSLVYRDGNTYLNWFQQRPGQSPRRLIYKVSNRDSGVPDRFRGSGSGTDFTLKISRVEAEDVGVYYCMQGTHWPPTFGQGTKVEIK
notes: Hybridoma monoclonal from Ablexis AlivaMAb Kappa mice (human immunoglobulin repertoire); the antibody was captured on anti-mouse Fc sensors and detected with anti-mouse IgG / anti-mouse IgG1 reagents; It is not the recombinant human IgG1 form H6-G23-F; also called 6-G23-F (10 µg/ml)
[6]
  FAB ZAP % SC16 Max Killing, NCI-H82 cells: 94%
[1]
  ratio of Mean Fluorescent Intensity (monoclonal / background staining with 2nd stage): 11.1
[7]
  Dy light Dy658 Fluorescence (% of the Control Reference Monoclonal Antibody), quenching internalization assay on NCI-H82 cells: 76.5%
[2]
  ratio of Mean Fluorescent Intensity (monoclonal / background staining with 2nd stage): 13.1
[3]
  ratio of Mean Fluorescent Intensity (monoclonal / background staining with 2nd stage): 3.97
[4]
  MFI Ratio (4° C. plate / 37° C. plate), 4/37 internalization assay on NCI-H82 cells: 1.67
[5]
  ratio of Mean Fluorescent Intensity (monoclonal / background staining with 2nd stage): 6.33
